The data set deals with the molecule itself. Description: blue native PAGE (BN-PAGE) of native, heat shocked and bis-ANS treated GRP94; self-association.

B1: GRP94 (glucose regulated protein of 94 kDa) purified from porcine pancreas (other, UniProt Q29092 22-804, looked up)
chain: EDEVDVDGTVEEDLGKSREGSRTDDEVVQREEEAIQLDGLNASQIRELREKSEKFAFQAEVNRMMKLIINSLYKNKEIFLRELISNASDALDKIRLISLTDENALAGNEELTVKIKCDKEKNLLHVTDTGVGMTREELVKNLGTIAKSGTSEFLNKMAEAQEDGQSTSELIGQFGVGFYSAFLVADKVIVTSKHNNDTQHIWESDSNEFSVIADPRGNTLGRGTTITLVLKEEASDYLELDTIKNLVKKYSQFINFPIYVWSSKTETVEEPMEEEEAAKEEKEESDDEAAVEEEEEEKKPKTKKVEKTVWDWELMNDIKPIWQRPSKEVEDDEYKAFYKSFSKESDDPMAYIHFTAEGEVTFKSILFVPTSAPRGLFDEYGSKKSDYIKLYVRRVFITDDFHDMMPKYLNFVKGVVDSDDLPLNVSRETLQQHKLLKVIRKKLVRKTLDMIKKIADEKYNDTFWKEFGTNIKLGVIEDHSNRTRLAKLLRFQSSHHPSDITSLDQYVERMKEKQDKIYFMAGSSRKEAESSPFVERLLKKGYEVIYLTEPVDEYCIQALPEFDGKRFQNVAKEGVKFDESEKSKENREAVEKEFEPLLNWMKDKALKDKIEKAVVSQRLTESPCALVASQYGWSGNMERIMKAQAYQTGKDISTNYYASQKKTFEINPRHPLIRDMLRRVKEDEDDKTVSDLAVVLFETATLRSGYLLPDTKAYGDRIERMLRLSLNIDPDAKVEEEPEEEPEETTEDTTEDTEQDDDEEMDAGADEEEQETSETSTAEKDEL
notes: also called gp96; ERp99
In the case of B1, the binding result was “binds”.

Values taken from patent US20020160496A1 (DUKE UNIVERSITY, published 2002).
